Here are results for 9 sequences from US20060257867.

Some results are limits rather than exact numbers.

The data set addresses T1, ghrelin (D-enantiomer, rat) (Rattus norvegicus) (UniProt Q9QYH7).
T1 sequence: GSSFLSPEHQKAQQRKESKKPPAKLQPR
The experiment in a line: pulldown. The note with it: bead assay, active conformation; 37 C.
By Kd is commonly meant the equilibrium constant for the complex coming apart. Read a high Kd as weaker binding. On to “GGAGCUCAGACUUCACUCGUGUGAGGCAAUAAAAACUUAAGUCCGAAGGUAACCAAUCCUACACGUACCACUGUCGGUUCCAC [E3]”, for which the Kd was less than 100 nM.
With “GGAGCUCAGACUUCACUCGUGUGAGGCAAUAAAACAUAAGUCCGAAGGUAACCAAUCCUACACGUACCACUGUCGGUUCCAC [B7]”, the Kd is less than 100 nM.
For “GGAGCUCAGACUUCACUCGUGUGAGGCAAUAAAACUUAAGUCCGAAGGUAACCAAUCCUGCACGUACCACUGUCGGUUCCAC [E12]” the value was less than 100 nM; for “GGAGCUCAGACUUCACUCGUGUGAGGCAAUAAAACUUGUAAGUCCGAAGGUAACCAAUCCUACACGUACCACUGUCGGUUCCAC [B12]”, less than 100 nM; for “GGAGCUCAGACUUCACUCGUGUGAGGCAGUAAAACUUAAGUCCGAAGGUAACCAAUCCUACACGUACCACUGUCGGUUCCAC [G2]”, less than 100 nM.
With “GGAGCUCAGACUUCACUCGUGUGAGGUAGUAAAAAAAAAAAAAAAACAUAAAUCCGAAGGUAACCAAUCCUACACGUACCACUGUCGGUUCCAC [G5]”, the Kd is less than 100 nM.
The sequence “GGAGCUCAGACUUCACUCGUGUGAGGUAGUAAAAAAAAAAAACGUAAAUCCGAAGGUAACCAAUCCUACACGUACCACUGUCGGUUCCAC [A12]” yielded a Kd of less than 100 nM.
On to “GGAGCUCAGACUUCACUCGUGUGAGGUAGUAAAAAAAAAAACGUAAAUCCGAAGGUAACCAGUCCUACACGUACCACUGUCGGUUCCAC [F5]”, for which the Kd was less than 100 nM.
For “GGAGCUCAGACUUCACUCGUGUGAGGUAGUAAAAAAAAAACGUAAAUCCGAAGGUAACCAAUCCUACACGUACCACUGUCGGUUCCAC [A3]” the value was less than 100 nM.
